Data reported in IntAct's records for PubMed 20543827.

B1: Retinoic acid receptor alpha (Homo sapiens), P10276 (parent)
chain: MASNSSSCPTPGGGHLNGYPVPPYAFFFPPMLGGLSPPGALTTLQHQLPVSGYSTPSPATIETQSSSSEEIVPSPPSPPPLPRIYKPCFVCQDKSSGYHYGVSACEGCKGFFRRSIQKNMVYTCHRDKNCIINKVTRNRCQYCRLQKCFEVGMSKESVRNDRNKKKKEVPKPECSESYTLTPEVGELIEKVRKAHQETFPALCQLGKYTTNNSSEQRVSLDIDLWDKFSELSTKCIIKTVEFAKQLPGFTTLTIADQITLLKAACLDILILRICTRYTPEQDTMTFSDGLTLNRTQMHNAGFGPLTDLVFAFANQLLPLEMDDAETGLLSAICLICGDRQDLEQPDRVDMLQEPLLEALKVYVRKRRPSRPHMFPKMLMKITDLRSISAKGAERVITLKMEIPGSMPPLIQEMLENSEGLDTLSGQPGGGGRDGGGLAPPPGSCSPSLSPSSNRSSPATHSP

Variants of: B1
Details: with ncor1_human NCOR1, O75376
ncor1_human NCOR1, O75376, sequence (O75376 whole entry): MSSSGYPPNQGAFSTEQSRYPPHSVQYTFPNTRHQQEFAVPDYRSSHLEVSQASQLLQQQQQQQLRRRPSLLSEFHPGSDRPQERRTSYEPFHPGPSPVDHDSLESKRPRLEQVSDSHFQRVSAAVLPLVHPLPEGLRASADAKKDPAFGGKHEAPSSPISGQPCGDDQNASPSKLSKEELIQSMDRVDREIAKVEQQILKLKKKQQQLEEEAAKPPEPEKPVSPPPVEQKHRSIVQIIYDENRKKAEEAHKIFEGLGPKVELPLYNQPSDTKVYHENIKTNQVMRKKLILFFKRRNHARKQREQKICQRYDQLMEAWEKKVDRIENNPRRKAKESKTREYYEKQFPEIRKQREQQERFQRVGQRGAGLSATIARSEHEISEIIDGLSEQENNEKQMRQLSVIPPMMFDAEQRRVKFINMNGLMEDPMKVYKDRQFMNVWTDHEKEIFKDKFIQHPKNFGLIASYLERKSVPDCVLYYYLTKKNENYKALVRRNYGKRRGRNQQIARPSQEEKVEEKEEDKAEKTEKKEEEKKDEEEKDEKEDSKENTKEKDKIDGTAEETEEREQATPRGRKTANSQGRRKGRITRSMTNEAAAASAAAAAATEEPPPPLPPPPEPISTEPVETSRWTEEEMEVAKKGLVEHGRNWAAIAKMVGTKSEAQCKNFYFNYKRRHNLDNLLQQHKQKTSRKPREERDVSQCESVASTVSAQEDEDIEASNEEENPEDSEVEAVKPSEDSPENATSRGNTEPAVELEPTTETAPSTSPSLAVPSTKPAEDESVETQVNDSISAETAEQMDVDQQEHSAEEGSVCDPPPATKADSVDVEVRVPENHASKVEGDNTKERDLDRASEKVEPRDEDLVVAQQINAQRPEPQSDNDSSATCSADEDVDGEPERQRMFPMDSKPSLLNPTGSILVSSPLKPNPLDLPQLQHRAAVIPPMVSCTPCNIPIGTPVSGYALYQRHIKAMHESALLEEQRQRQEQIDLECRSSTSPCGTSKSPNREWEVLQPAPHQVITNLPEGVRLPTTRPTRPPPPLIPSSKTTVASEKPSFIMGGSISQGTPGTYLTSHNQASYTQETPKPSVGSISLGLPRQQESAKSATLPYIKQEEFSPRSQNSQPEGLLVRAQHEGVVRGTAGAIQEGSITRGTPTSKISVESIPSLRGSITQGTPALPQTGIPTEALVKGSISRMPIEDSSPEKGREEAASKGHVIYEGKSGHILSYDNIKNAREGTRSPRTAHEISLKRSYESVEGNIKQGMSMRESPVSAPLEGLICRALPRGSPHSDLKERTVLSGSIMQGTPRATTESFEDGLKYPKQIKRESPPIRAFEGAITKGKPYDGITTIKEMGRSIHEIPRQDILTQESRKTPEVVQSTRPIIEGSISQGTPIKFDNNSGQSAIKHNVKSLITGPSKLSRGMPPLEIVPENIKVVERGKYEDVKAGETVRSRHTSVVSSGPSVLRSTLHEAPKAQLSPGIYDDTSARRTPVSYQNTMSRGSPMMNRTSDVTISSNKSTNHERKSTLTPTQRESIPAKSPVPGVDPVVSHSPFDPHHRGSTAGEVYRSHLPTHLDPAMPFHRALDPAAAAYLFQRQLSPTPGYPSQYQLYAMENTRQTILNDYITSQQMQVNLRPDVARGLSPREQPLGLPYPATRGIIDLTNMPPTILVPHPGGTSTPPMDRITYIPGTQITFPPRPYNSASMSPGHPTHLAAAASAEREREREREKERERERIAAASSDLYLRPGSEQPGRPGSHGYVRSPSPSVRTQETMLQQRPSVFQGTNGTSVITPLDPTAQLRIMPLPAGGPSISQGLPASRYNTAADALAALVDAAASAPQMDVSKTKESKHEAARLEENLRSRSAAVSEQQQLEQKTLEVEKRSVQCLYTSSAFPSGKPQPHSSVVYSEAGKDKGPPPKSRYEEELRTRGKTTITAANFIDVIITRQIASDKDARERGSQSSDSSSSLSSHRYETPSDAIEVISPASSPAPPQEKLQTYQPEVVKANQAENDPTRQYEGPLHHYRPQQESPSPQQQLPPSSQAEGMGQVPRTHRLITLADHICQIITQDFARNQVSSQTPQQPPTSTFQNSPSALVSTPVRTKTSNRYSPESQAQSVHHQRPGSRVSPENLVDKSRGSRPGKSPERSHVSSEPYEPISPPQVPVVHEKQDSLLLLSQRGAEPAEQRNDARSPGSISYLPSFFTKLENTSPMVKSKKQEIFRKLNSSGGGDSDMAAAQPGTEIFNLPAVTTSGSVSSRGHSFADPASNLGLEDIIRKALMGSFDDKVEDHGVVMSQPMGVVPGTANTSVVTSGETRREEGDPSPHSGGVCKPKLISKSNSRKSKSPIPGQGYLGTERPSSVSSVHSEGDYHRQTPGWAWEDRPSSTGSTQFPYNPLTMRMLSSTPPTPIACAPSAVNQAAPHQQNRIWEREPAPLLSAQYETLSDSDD

effect of a mutation on the interaction | Variant
decreasing interaction | MASNSSSCPTPGGGHLNGYPVPPYAFFFPPMLGGLSPPGALTTLQHQLPVSGYSTPSPATIETQSSSSEEIVPSPPSPPPLPRIYKPCFVCQDKSSGYHYGVSACEGCKGFFRRSIQKNMVYTCHRDKNCIINKVTRNRCQYCRLQKCFEVGMSKESVRNDRNKKKKEVPKPECSESYTLTPEVGELIEKVRKAHQETFPALCQLGKYTTNNSSEQRVSLDIDLWDKFSELSTKCIIKTVEFAKQLPGFTTLTIADQITLLKAACLDILILRICTRYTPEQDTMTFSDGLTLNRTQMHNAGFGPLTDLVFAFANQLLPLEMDDAETGLLSAICLICGDRQDLEQPDRVDMLQEPLLEALKVYVRKRRPSRPHMFPKMLMKITDLRSISAKGAERVETLKMEIPGSMPPLIQEMLENSEGLDTLSGQPGGGGRDGGGLAPPPGSCSPSLSPSSNRSSPATHSP [I396E]

Variants of: B1
Details: with ncor1_mouse Ncor1, Q60974

effect of a mutation on the interaction | Variant
disrupting interaction | MASNSSSCPTPGGGHLNGYPVPPYAFFFPPMLGGLSPPGALTTLQHQLPVSGYSTPSPATIETQSSSSEEIVPSPPSPPPLPRIYKPCFVCQDKSSGYHYGVSACEGCKGFFRRSIQKNMVYTCHRDKNCIINKVTRNRCQYCRLQKCFEVGMSKESVRNDRNKKKKEVPKPECSESYTLTPEVGELIEKVRKAHQETFPALCQLGKYTTNNSSEQRVSLDIDLWDKFSELSTKCIIKTVEFAKQLPGFTTLTIADQITLLKAACLDILILRICTRYTPEQDTMTFSDGLTLNRTQMHNAGFGPLTDLVFAFANQLLPLEMDDAETGLLSAICLICGDRQDLEQPDRVDMLQEPLLEALKVYVRKRRPSRPHMFPKMLMKITDLRSISAKGAERVETLKMEIPGSMPPLIQEMLENSEGLDTLSGQPGGGGRDGGGLAPPPGSCSPSLSPSSNRSSPATHSP [I396E]

Variants of: B1
Details: with ncor2_human NCOR2, Q9Y618
ncor2_human NCOR2, Q9Y618, sequence (Q9Y618 whole entry): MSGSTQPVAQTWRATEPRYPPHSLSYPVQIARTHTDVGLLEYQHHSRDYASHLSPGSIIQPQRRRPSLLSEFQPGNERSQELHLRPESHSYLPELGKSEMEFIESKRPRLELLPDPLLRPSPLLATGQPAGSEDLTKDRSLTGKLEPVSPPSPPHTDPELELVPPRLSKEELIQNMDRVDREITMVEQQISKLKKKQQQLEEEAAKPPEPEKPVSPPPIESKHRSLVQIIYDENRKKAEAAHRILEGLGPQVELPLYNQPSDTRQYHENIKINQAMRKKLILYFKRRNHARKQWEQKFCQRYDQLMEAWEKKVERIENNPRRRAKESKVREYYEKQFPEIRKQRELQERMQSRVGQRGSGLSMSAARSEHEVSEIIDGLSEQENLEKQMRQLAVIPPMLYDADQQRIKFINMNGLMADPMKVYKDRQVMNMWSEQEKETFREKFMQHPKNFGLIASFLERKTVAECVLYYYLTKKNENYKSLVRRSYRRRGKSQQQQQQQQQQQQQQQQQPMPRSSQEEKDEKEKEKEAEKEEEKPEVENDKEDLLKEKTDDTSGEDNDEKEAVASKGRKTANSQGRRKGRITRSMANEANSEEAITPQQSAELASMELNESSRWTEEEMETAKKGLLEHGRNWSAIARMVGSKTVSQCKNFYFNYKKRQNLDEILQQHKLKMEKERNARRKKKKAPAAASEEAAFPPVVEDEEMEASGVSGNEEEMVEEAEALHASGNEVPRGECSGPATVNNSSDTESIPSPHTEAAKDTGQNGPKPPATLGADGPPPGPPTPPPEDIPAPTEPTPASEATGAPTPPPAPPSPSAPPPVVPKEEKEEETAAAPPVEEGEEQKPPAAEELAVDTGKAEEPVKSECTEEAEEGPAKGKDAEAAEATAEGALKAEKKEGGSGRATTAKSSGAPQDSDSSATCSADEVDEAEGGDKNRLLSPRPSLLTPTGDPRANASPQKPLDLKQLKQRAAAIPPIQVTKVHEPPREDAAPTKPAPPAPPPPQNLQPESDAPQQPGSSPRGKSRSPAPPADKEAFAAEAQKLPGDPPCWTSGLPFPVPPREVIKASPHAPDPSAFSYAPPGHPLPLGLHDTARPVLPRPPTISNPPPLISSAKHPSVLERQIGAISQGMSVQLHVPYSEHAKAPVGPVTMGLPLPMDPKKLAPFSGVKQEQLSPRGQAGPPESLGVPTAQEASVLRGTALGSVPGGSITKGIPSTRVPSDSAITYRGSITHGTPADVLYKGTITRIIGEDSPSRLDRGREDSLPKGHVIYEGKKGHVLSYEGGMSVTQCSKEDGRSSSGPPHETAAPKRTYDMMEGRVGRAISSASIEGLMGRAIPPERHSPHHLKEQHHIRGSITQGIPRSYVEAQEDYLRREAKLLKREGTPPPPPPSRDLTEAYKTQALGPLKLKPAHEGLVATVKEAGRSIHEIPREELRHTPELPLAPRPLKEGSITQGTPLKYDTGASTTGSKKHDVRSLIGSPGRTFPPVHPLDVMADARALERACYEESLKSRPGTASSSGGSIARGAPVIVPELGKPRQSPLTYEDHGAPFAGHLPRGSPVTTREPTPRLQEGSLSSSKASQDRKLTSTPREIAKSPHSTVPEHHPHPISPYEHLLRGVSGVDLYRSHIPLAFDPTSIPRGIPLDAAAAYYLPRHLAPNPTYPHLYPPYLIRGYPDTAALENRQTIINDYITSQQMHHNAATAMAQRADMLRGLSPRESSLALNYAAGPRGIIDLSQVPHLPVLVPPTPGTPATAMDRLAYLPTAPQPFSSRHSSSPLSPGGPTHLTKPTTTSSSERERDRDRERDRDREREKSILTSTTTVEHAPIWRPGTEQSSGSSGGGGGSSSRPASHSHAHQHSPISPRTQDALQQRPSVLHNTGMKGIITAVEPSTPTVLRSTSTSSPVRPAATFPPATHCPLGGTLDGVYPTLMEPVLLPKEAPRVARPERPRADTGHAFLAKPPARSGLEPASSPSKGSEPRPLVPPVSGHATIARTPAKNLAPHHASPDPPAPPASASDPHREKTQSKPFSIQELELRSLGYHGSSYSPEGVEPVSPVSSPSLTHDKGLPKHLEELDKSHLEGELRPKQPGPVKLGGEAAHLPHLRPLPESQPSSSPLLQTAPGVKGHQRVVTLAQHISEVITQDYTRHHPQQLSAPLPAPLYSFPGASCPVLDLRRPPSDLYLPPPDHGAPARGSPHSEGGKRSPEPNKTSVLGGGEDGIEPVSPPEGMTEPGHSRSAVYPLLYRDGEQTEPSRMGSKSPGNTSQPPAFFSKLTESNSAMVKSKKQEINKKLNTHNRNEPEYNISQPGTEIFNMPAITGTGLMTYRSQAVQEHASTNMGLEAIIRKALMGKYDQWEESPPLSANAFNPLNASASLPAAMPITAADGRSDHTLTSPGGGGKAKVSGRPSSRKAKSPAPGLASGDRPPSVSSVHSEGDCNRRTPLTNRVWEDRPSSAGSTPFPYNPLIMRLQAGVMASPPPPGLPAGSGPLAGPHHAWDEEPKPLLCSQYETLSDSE

effect of a mutation on the interaction | Variant
disrupting interaction | MASNSSSCPTPGGGHLNGYPVPPYAFFFPPMLGGLSPPGALTTLQHQLPVSGYSTPSPATIETQSSSSEEIVPSPPSPPPLPRIYKPCFVCQDKSSGYHYGVSACEGCKGFFRRSIQKNMVYTCHRDKNCIINKVTRNRCQYCRLQKCFEVGMSKESVRNDRNKKKKEVPKPECSESYTLTPEVGELIEKVRKAHQETFPALCQLGKYTTNNSSEQRVSLDIDLWDKFSELSTKCIIKTVEFAKQLPGFTTLTIADQITLLKAACLDILILRICTRYTPEQDTMTFSDGLTLNRTQMHNAGFGPLTDLVFAFANQLLPLEMDDAETGLLSAICLICGDRQDLEQPDRVDMLQEPLLEALKVYVRKRRPSRPHMFPKMLMKITDLRSISAKGAERVETLKMEIPGSMPPLIQEMLENSEGLDTLSGQPGGGGRDGGGLAPPPGSCSPSLSPSSNRSSPATHSP [I396E]

Variants of: B1
Details: with ncor2_human NCOR2, Q9Y618
Remark: another data set of the same source

effect of a mutation on the interaction | Variant
decreasing interaction | MASNSSSCPTPGGGHLNGYPVPPYAFFFPPMLGGLSPPGALTTLQHQLPVSGYSTPSPATIETQSSSSEEIVPSPPSPPPLPRIYKPCFVCQDKSSGYHYGVSACEGCKGFFRRSIQKNMVYTCHRDKNCIINKVTRNRCQYCRLQKCFEVGMSKESVRNDRNKKKKEVPKPECSESYTLTPEVGELIEKVRKAHQETFPALCQLGKYTTNNSSEQRVSLDIDLWDKFSELSTKCIIKTVEFAKQLPGFTTLTIADQITLLKAACLDILILRICTRYTPEQDTMTFSDGLTLNRTQMHNAGFGPLTDLVFAFANQLLPLEMDDAETGLLSAICLICGDRQDLEQPDRVDMLQEPLLEALKVYVRKRRPSRPHMFPKMLMKITDLRSISAKGAERVETLKMEIPGSMPPLIQEMLENSEGLDTLSGQPGGGGRDGGGLAPPPGSCSPSLSPSSNRSSPATHSP [I396E]
